Test results taken from publication PMC10783091, “Higher affinities of fibers with cell receptors increase the infection capacity and virulence of human adenovirus type 7 and type 55 compared to type 3” (Microbiology Spectrum, 2023).

Legend:
[1] = target: recombinant human desmoglein 2 (DSG2) (human) (UniProt Q14126); assay: SPR; DSG2 amine-coupled on a CM5 chip (3,500-3,700 RU), knobs as analytes; 25°C; HBS-EP (10 mM HEPES, 150 mM NaCl, 3 mM EDTA, 0.05% Tween 20, pH 7.4); association 180 s, dissociation 540 s, 30 µL/min; Biacore 8K
[2] = target: Recombinant fiber knob of HAdV-55 (human adenovirus type 55); assay: SDS-PAGE of unboiled (native) against boiled samples; purified knobs in loading buffer kept on ice (native) or heated at 98°C for 5 min (boiled); 12% SDS-PAGE
[3] = target: Recombinant fiber knob of HAdV-7 (human adenovirus type 7) (UniProt P15141); assay: as above
[4] = target: the molecule itself; assay: as above
[5] = target: T1, recombinant human desmoglein 2 (DSG2) (human, UniProt Q14126 50-609); assay: SPR; DSG2 amine-coupled on a CM5 chip (3,500-3,700 RU), knobs as analytes; 25°C; HBS-EP (10 mM HEPES, 150 mM NaCl, 3 mM EDTA, 0.05% Tween 20, pH 7.4); association 180 s, dissociation 540 s, 30 µL/min; Biacore 8K; conditions: both partners purified
T1 construct: desmoglein 2, human, recombinant; No catalogue number, limits or tags are printed for the bought protein; The source is named for the SPR; the ELISA says only 'human DSG2'; also called human DSG2; receptor DSG2; source: bought: Creative Biomart
T1 sequence: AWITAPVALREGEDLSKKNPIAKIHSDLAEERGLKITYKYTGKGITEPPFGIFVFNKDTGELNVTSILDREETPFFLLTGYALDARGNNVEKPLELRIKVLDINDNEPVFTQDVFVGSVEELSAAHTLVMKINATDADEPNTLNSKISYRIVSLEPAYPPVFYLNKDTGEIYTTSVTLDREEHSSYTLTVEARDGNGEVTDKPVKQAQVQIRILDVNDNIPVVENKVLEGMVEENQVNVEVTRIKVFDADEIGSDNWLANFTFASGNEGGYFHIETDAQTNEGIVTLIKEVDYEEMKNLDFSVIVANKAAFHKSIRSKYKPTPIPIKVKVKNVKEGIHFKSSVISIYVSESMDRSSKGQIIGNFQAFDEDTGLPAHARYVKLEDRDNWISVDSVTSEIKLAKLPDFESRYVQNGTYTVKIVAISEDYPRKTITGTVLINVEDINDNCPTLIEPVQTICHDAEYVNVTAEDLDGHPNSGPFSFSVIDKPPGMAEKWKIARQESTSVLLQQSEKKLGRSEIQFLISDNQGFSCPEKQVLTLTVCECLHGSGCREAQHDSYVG

Recombinant fiber knob of HAdV-55 (domain or fragment)
Kd [1]: 1.25 nM | stoichiometry N [2]: 3

Recombinant fiber knob of HAdV-7 (from UniProt P15141 1-343) (domain or fragment)
Kd [1]: 2.21 nM | stoichiometry N [3]: 3

B1: Recombinant fiber knob of HAdV-5 (domain or fragment)
chain: GAITVGNKNNDKLTLWTTPAPSPNCRLNAEKDAKLTLVLTKCGSQILATVSVLAVKGSLAPISGTVQSAHLIIRFDENGVLLNNSFLDPEYWNFRNGDLTEGTAYTNAVGFMPNLSAYPKSHGKTAKSNIVSQVYLNGDKTKPVTLTITLNGTQETGDTTPSAYSMSFSWDWSGHNYINEIFATSSYTFSYIAQE
notes: fiber protein of human adenovirus type 5, fiber knob with the last shaft repeat; Negative control knob; also called Ad5K; Ad5k; not shown: His tag, N-terminal, kept
stoichiometry N [4]: 3

B2: Recombinant fiber knob of HAdV-3 (domain or fragment)
chain: KLGNGLTFDSSNSIALKNNTLWTGPKPEANCIIEYGKQNPDSKLTLILVKNGGIVNGYVTLMGASDYVNTLFKNKNVSINVELYFDATGHILPDSSSLKTDLELKYKQTADFSARGFMPSTTAYPFVLPNAGTHNENYIFGQCYYKASDGALFPLEVTVMLNKRLPDSRTSYVMTFLWSLNAGLAPETTQATLITSPFTFSYIREDD
notes: fiber protein of human adenovirus type 3, fiber knob with the last shaft repeat; also called Ad3K; Ad3k; not shown: His tag, N-terminal, kept
Kd [5]: 6.7 nM
